Experimental data as given in paper PMC8113883, “Wild-type sTREM2 blocks Aβ aggregation and neurotoxicity, but the Alzheimer's R47H mutant increases Aβ aggregation” (The Journal of Biological Chemistry, 2021).

Target: T1, HiLyte Fluor 488-labeled Aβ42 oligomers (human, UniProt P05067 672-713, HiLyte Fluor 488 label (position not given))
T1 construct: amyloid beta peptide 1-42 (Aβ42), human; cut product of the amyloid precursor protein; Oligomeric species of the 6 h aggregation mixture, told apart from monomers by photobleaching; also called oligomeric Aβ; Aβ oligomers; source: bought: AnaSpec; aggregated at 0.5 μM in PBS pH 7.4 for 6 h in a shaking incubator
Assay: single-molecule TIRF two-color coincidence detection; HiLyte Fluor 488 Aβ aggregated 6 h (0.5 μM, PBS pH 7.4), dye-labeled sTREM2 added and imaged; monomers and oligomers told apart by photobleaching; chance coincidence subtracted
Settings: both partners purified

B1: dye-labeled wild-type sTREM2 (TREM2 ectodomain) for TIRF imaging (domain or fragment, human, UniProt Q9NZC2 19-143, looked up)
chain: HNTTVFQGVAGQSLQVSCPYDSMKHWGRRKAWCRQLGEKGPCQRVVSTHNLWLLSFLRRWNGSTAITDDTLGGTLTITLRNLQPHDAGLYQCQSLHGSEADTLRKVLVEVLADPLDHRDAGDLWF
modifications: TAMRA dye (results) or AF647 (methods), position not stated
notes: TREM2, human, residues 19-143 (soluble ectodomain); also called TAMRA-dye labeled sTREM2; AF647-TREM2; source: Freestyle 293-F, transfected (pHLSec), purified from conditioned medium (IMAC, gel filtration); dye-labeled
B1: binds.
